Measured values as given in patent publication US20140302020A1 (ALETHIA BIOTHERAPEUTICS, published 2014).

What was measured:
[1] = molecular target: T1, recombinant monomeric human clusterin (human, UniProt P10909 23-449); assay: SPR (BIAcore 3000), recombinant monomeric human clusterin amine-coupled to a CM3 chip, Fab injected
T1 construct: Tags and processing into alpha and beta chains are not described; also called recombinant human clusterin; immobilized clusterin
Protocol: (§1) HBST (10 mM Hepes pH 7.4, 135 mM NaCl, 3.4 mM EDTA, 0.005% Tween 20) was used as running buffer for all BIAcore experiments. Recombinant monomeric clusterin was immobilized on a CM3 chip with normal amine coupling method at a flow of 5 μl/min. Surface was activated with 35 μl of a mixture of 50 mM NHS/0.2M EDC. Clusterin in 10 mM Na-acetate pH 4.5 was injected until a desired amount was captured (below 60RU). Unreacted esters were deactivated with 35 μl of 1M ethanolamine hydrochloride-NaOH pH8.5. A control surface was prepared by injecting NHS/EDC and ethanolamine in the same manner.
(§2) Kinetics analysis was conducted at a flow of 50 μl/min. Full length antibodies (mouse or humanized) or Fab were diluted in HBST. Concentration range was from 1.953-31.25 nM for the full length antibodies and 15.625-250 nM for the Fab. Each concentration was injected over the clusterin and a control surface for 5 min followed with a 5 min dissociation wash. The clusterin surface was regenerated between each antibody injection with 50 μl of 20 mM HCl.

[2] = molecular target: T1, recombinant monomeric human clusterin; assay: SPR (BIAcore 3000), recombinant monomeric human clusterin amine-coupled to a CM3 chip, full length antibody injected
Protocol: as §1, §2

[3] = molecular target: T1, recombinant monomeric human clusterin; assay: SPR (BIAcore 3000), recombinant monomeric human clusterin amine-coupled to a CM3 chip, Fab injected; remark: listed apart in the source
Protocol: (§3) The purpose of these investigations is to determine the kinetics parameters of anti-clusterin antibodies. In particular, to determine whether the humanization of the 16B5 and 21B12 anti-clusterin monoclonal antibody affects the kinetics parameters of its binding to human clusterin. To this end, a kinetic analysis method was developed using the BIAcore 3000. Human clusterin was immobilized on a sensor chip. Full length antibodies or Fab fragments were injected and allowed to interact with the immobilized clusterin. This example described the exemplary antibody 16B5 but the 21B12 exemplary antibody was prepared and tested in a similar manner.
as §1, §2

[4] = molecular target: T1, recombinant monomeric human clusterin; assay: SPR (BIAcore 3000), recombinant monomeric human clusterin amine-coupled to a CM3 chip, full length antibody injected; remark: listed apart in the source
Protocol: as §3, §1, §2

T1 sequence (P10909 23-449 limits assumed): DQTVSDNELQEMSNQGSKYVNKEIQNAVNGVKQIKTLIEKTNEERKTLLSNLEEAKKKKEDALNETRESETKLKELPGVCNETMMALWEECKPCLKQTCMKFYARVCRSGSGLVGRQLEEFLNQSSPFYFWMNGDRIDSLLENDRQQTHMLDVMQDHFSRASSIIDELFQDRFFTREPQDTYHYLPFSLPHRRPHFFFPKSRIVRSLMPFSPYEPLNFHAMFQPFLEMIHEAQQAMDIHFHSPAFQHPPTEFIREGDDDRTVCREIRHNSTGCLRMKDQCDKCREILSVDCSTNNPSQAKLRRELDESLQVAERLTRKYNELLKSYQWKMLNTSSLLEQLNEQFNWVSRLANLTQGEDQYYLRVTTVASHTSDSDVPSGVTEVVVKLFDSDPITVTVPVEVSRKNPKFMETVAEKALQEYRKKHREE

B1: mouse 16B5 Fab (Fab, V domains shown)
VH: EVQLQQSGAELVKPGASVRLSCTTSGFNIKDIYMHWVKQRPEQGLEWIGRIDPAYGNTKYDPKFQGKATITADTSSNTAYLQLSSLTSEDTAVYYCARRYDTAMDYWGQGTSVTVSS
VL: DIVMSQSPSSLAVSAGEKVTMSCKSSQSLLNSRTRKNYLAWYQQKPGQSPKLLIYWASTRESGVPDRFTGSGSGTDFTLTISSVQAEDLAVYYCKQSYNLWTFGGGTKLEFK
notes: also called Fab mouse antibody
[1]
  Kd: 41.6 nM
  koff: 0.003 s⁻¹
  kon: 74100 M⁻¹ s⁻¹

B2: mouse 16B5 anti-clusterin monoclonal antibody (full length) (antibody, V domains shown)
VH: EVQLQQSGAELVKPGASVRLSCTTSGFNIKDIYMHWVKQRPEQGLEWIGRIDPAYGNTKYDPKFQGKATITADTSSNTAYLQLSSLTSEDTAVYYCARRYDTAMDYWGQGTSVTVSS
VL: DIVMSQSPSSLAVSAGEKVTMSCKSSQSLLNSRTRKNYLAWYQQKPGQSPKLLIYWASTRESGVPDRFTGSGSGTDFTLTISSVQAEDLAVYYCKQSYNLWTFGGGTKLEFK
notes: Full-length mouse IgG purified from the original hybridoma; also called murine 16B5; hybridoma 16B5
[2]
  Kd: 6.64 nM
  koff: 0.0017 s⁻¹
  kon: 329000 M⁻¹ s⁻¹

B3: 21B12 Fab (Fab, V domains shown)
VH: QIQLVQSGPELKKPGETVKISCKASGYTFTNYGMHWVKQAPGKGLKWMGWINTYTGEPTYADDFKGRFAFSLETSASTAYLQINNLKNEDTATYFCARDGFLYFFDYWGQGTTLTVSS
VL: DIVMSQSPSSLAVSVGEKVTMSCKSSQSLLYSSNQKNYLAWYQQRPGQSPKLLIYWASTRESGVPDRFTGSGSGTDFTLTISSVKAEDLAVYYCQQYYIYPRTFGGGTKLEIK
notes: also called mouse 21B12 Fab; Fab fragment of the murine 21B12 anti-clusterin antibody
[3]
  Kd: 25.3 nM
  koff: 0.00352 s⁻¹
  kon: 215000 M⁻¹ s⁻¹

B4: mouse 21B12 anti-clusterin monoclonal antibody (full length) (antibody, V domains shown)
VH: QIQLVQSGPELKKPGETVKISCKASGYTFTNYGMHWVKQAPGKGLKWMGWINTYTGEPTYADDFKGRFAFSLETSASTAYLQINNLKNEDTATYFCARDGFLYFFDYWGQGTTLTVSS
VL: DIVMSQSPSSLAVSVGEKVTMSCKSSQSLLYSSNQKNYLAWYQQRPGQSPKLLIYWASTRESGVPDRFTGSGSGTDFTLTISSVKAEDLAVYYCQQYYIYPRTFGGGTKLEIK
notes: also called murine 21B12; parent mouse 21B12
[4]
  Kd: 5.09 nM
  koff: 0.0015 s⁻¹
  kon: 362000 M⁻¹ s⁻¹

B5: humanized 16B5 anti-clusterin antibody (full length, human IgG2) (antibody, V domains shown)
VH: QVQLVQSGAEVKKPGATVKISCKVSGFNIKDIYMHWVQQAPGKGLEWMGRIDPAYGNTKYDPKFQGRVTITADTSTDTAYMELSSLRSEDTAVYYCARRYDTAMDYWGQGTLVTVSS
VL: DIVMTQSPDSLAVSLGERATINCKSSQSLLNSRTRKNYLAWYQQKPGQPPKLLIYWASTRESGVPDRFSGSGSGTDFTLTISSLQAEDVAVYYCKQSYNLWTFGQGTKLEIKV
notes: also called h16B5; H16B5
[2]
  Kd: 4.49 nM
  koff: 0.0015 s⁻¹
  kon: 345000 M⁻¹ s⁻¹

B6: humanized 16B5 Fab (Fab, V domains shown)
VH: QVQLVQSGAEVKKPGATVKISCKVSGFNIKDIYMHWVQQAPGKGLEWMGRIDPAYGNTKYDPKFQGRVTITADTSTDTAYMELSSLRSEDTAVYYCARRYDTAMDYWGQGTLVTVSS
VL: DIVMTQSPDSLAVSLGERATINCKSSQSLLNSRTRKNYLAWYQQKPGQPPKLLIYWASTRESGVPDRFSGSGSGTDFTLTISSLQAEDVAVYYCKQSYNLWTFGQGTKLEIK
notes: The preparation still held some F(ab')2; also called HH16B5 Fab; HH 16B5 Fab
[1]
  Kd: 17.2 nM
  koff: 0.0027 s⁻¹
  kon: 159000 M⁻¹ s⁻¹

B7: humanized 21B12 anti-clusterin antibody (full length, human IgG2) (antibody, V domains shown)
VH: QVQLVQSGSELKKPGASVKVSCKASGYTFTNYGMHWVRQAPGQGLEWMGWINTYTGEPTYADDFKGRFVFSLDTSVSTAYLQISSLKAEDTAVYYCARDGFLYFFDYWGQGTLVTVSS
VL: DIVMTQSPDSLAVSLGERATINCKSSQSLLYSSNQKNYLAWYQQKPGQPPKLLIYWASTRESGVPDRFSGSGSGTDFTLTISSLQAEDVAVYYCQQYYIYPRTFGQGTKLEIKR
notes: also called HH21B12
[4]
  Kd: 2.23 nM
  koff: 0.00083 s⁻¹
  kon: 374000 M⁻¹ s⁻¹
